Substrate in this data set: O=C(O)O
The data set can be described thus: cells, lysate or membranes. The note with it: pH 7.5, 20 mM bis-tris propane-H2SO4, 0.5 mM glucose, 1 µM CaCl2, induced with 100 µM IPTG, labelled compound.

For orientation: Km means the concentration of substrate that gives half-maximal velocity.

B1: BCT1 CmpCD fusion (GN128) (Synechococcus elongatus PCC 7942 = FACHB-805) (protein)
chain 1: CGNPPSSSGGGTSSTTQPTAAGASDLEVKTIKLGYIPIFEAAPLIIGREKGFFAKYGLDVEVSKQASWAAARDNVILGSAGGGIDGGQWQMPMPALLTEGAISNGQKVPMYVLACLSTQGNGIAVSNQLKAQNLGLKLAPNRDFILNYPQTSGRKFKASYTFPNANQDFWIRYWFAAGGIDPDKDIELLTVPSAETLQNMRNGTIDCFSTGDPWPSRIAKDDIGYQAALTGQMWPYHPEEFLALRADWVDKHPKATLALLMGLMEAQQWCDQKANRAEMAKILSGRNFFNVPVSILQPILEGQIKVGADGKDLNNFDAGPLFWKSPRGSVSYPYKGLTLWFLVESIRWGFNKQVLPDIAAAQKLNDRVTREDLWQEAAKKLGVPAADIPTGSTRGTETFFDGITYNPDSPQAYLQSLKIKRA
chain 2: MVTARETRRNGSRPSGLKKWRQKLDGILLPLAGILGFLIIWQIFSSSGATRLPGPLSLFTEERTRELLLYPFLDRGGLDKGLFWQTIASLTRVAQGFSIAAIIGISVGILVGLNRQLNAMLDPLFQFLRMIAPLAWVPIALVAFQQNQPAAIFVIFITAVWPILINTAEGVRQIPQDYNNVARVLRMSKSKYLMKVVLPAALPYIFTGLRIAIGLSWLAIIAAEIVMSGIVGIGFFIWDAYQQNYVSDIILAVIYIGAVGLLLDRFVAWLQRWILRNM
Turning to B1, the Km amounted to 120 ± 20 µM.

B2: BCT1 CmpCD fusion with tags (GM319) (Synechococcus elongatus PCC 7942 = FACHB-805) (protein)
chain 1: B1 chain 1
chain 2: B1 chain 2
In the case of B2, the Km is 170 ± 30 µM.
